Assay results taken from article PMC12241633, “Irinotecan alleviates chemoresistance to anthracyclines through the inhibition of AARS1-mediated BLM lactylation and homologous recombination repair” (Signal Transduction and Targeted Therapy, 2025).

Molecular target: T1, purified human MIB1 protein (human, UniProt Q86YT6 1-1006)
T1 construct: MIB1, human; source: E. coli BL21 (DE3), pET28a-sumo, purified (AKTA pure chromatography)
Test: SPR; Biacore T200, CM5 chip, amine coupling in 10 mM sodium acetate pH 4.0 to 5000 RU, 25 °C, running buffer PBS, 0.05% Tween-20, 1% DMSO; multicycle kinetics, 1:1 Langmuir fit; which of the two proteins was immobilised is not stated
Conditions: both partners purified

T1 sequence (Q86YT6 whole entry): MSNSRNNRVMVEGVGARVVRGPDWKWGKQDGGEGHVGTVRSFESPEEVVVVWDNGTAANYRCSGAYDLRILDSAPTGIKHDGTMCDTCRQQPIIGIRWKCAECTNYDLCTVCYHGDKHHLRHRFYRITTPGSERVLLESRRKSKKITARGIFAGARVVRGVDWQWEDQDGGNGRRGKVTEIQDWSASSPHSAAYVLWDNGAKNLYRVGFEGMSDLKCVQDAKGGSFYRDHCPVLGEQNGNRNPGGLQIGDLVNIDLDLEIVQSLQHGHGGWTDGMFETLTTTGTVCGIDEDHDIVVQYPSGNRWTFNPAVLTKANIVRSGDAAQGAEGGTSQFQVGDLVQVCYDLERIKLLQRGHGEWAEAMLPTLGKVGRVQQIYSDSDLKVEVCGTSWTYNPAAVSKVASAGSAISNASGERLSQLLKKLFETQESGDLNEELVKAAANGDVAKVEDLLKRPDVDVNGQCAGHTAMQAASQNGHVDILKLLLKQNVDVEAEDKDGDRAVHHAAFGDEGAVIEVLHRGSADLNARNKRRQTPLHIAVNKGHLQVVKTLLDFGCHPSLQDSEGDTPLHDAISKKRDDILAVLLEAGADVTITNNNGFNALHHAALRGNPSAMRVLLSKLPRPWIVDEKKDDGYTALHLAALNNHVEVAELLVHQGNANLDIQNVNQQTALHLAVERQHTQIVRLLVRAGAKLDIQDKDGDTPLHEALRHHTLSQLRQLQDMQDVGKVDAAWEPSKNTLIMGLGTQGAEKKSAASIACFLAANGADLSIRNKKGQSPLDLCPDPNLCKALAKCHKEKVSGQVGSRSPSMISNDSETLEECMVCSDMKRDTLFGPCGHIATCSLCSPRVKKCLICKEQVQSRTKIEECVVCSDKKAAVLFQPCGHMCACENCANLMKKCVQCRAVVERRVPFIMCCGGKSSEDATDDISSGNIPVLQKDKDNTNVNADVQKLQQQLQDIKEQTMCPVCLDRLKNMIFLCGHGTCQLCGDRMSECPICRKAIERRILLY

| Kd | Binder |
| --- | --- |
| 121 nM | purified human BLM-WT protein (natural protein, BLM, human; also called WT BLM; source: E. coli BL21 (DE3), pET28a-sumo, purified (AKTA pure chromatography)) not shown |
| 26.8 nM | purified human BLM-K24R protein (natural protein, BLM, human, K24R; also called K24R BLM; BLM-K24R mutant; source: E. coli BL21 (DE3), pET28a-sumo, purified (AKTA pure chromatography)) not shown |
